Laboratory results reported in paper PMC3571961.

Columns and labels:
[1] = target: C-terminal domain of minor ampullate spidroin (CTDMi) from N. antipodiana (Nephila antipodiana); experiment: SEC; Superdex 75 PG, 120 ml, 10 mM sodium phosphate pH 6.8 without NaCl, 1 ml/min; apparent molecular weight against standards
[2] = target: Tri-domain miniature fibroin RP-LK-CTDMi of minor ampullate spidroin from N. antipodiana (Nephila antipodiana); experiment: as above

stoichiometry N [1]	stoichiometry N [2]	Substance
2	–	C-terminal domain of minor ampullate spidroin (CTDMi) from N. antipodiana (domain or fragment)
–	2	Tri-domain miniature fibroin RP-LK-CTDMi of minor ampullate spidroin from N. antipodiana (domain or fragment)
